# Measurements reported in patent US20110028695A1 (published 2011).
# Substitutions are numbered along the chain they refer to.
# B1: 2H3 (VHH)
# VHH: EVQLVESGGGLVQPGGSLRLSCVASGFSLDDYGMTWVRQAPGKGLEWVSSINWSGTHTDYADSVKGRFTISRDNAKNTLFLQMNSLTPEDTAVYYCNQGWKIIPTDRRGHGTQVTVSS
# notes: c-myc/His6-tagged
# B2: 2C3-9GS-2C3 (VHH)
# chain: EVQLVESGGGLVQPGGSLRLSCVASGFSLDDYGMTWVRQAPGKGLEWVSSINWSGTHTDYADSVKGRFTISRDNAKNTLFLQMNSLRSEDTAVYYCNQGWKIVPTDRTGHGTQVTVSSGGGGSGGGSEVQLVESGGGLVQPGGSLRLSCVASGFSLDDYGMTWVRQAPGKGLEWVSSINWSGTHTDYADSVKGRFTISRDNAKNTLFLQMNSLRSEDTAVYYCNQGWKIVPTDRTGHGTQVTVSS
# notes: bivalent Nanobody, two VHH joined by a 9GS linker
# B3: 2D3 (VHH)
# VHH: EVQLVESGGSLVQPGGSLRLSCAASGFTFDDYAMSWVRQVPGKGLEWVSSINWSGTHTDYADSVKGRFTISRNNANNTLYLQMNSLKSEDTAVYYCAKNWRDAGTTWFEKSGSAGQGTQVTVSS
# B4: 13C12 (VHH)
# VHH: B3 VHH with A24T, S35T, V40A, A61T, R101G
# notes: c-myc/His6-tagged
# B5: 27A5-35GS-2D3 (bispecific antibody)
# chain: EVQLVESGGGLVQAGGSLNLSCVASGIPFSTRTMAWYRQPPGNERDWVATIRSGAPVYADSVKGRFTVSRDNAKNTLYLQMNSLEPEDTATYYCWDVNGDIWGQGTPVTVSSGGGGSGGGGSGGGGSGGGGSGGGGSGGGGSGGGGSEVQLVESGGSLVQPGGSLRLSCAASGFTFDDYAMSWVRQVPGKGLEWVSSINWSGTHTDYADSVKGRFTISRNNANNTLYLQMNSLKSEDTAVYYCAKNWRDAGTTWFEKSGSAGQGTQVTVSS
# notes: biparatopic Nanobody, 35GS linker; c-myc, His6-tagged
# B6: 2A5-9GS-2A5 (VHH)
# chain: EVQLVESGGGLVQPGGSLRLSCATSGFTFDDYAMTWVRQAPGKGLEWVSSINWSGTHTDYTDSVKGRFTISRNNANNTLYLQMNSLKSEDTAVYYCAKNWGDAGTTWFEKSGSAGQGTQVTVSSGGGGSGGGSEVQLVESGGGLVQPGGSLRLSCATSGFTFDDYAMTWVRQAPGKGLEWVSSINWSGTHTDYTDSVKGRFTISRNNANNTLYLQMNSLKSEDTAVYYCAKNWGDAGTTWFEKSGSAGQGTQVTVSS
# notes: as for B2
# B7: 2D3-9GS-2D3 (VHH)
# chain: EVQLVESGGSLVQPGGSLRLSCAASGFTFDDYAMSWVRQVPGKGLEWVSSINWSGTHTDYADSVKGRFTISRNNANNTLYLQMNSLKSEDTAVYYCAKNWRDAGTTWFEKSGSAGQGTQVTVSSGGGGSGGGSEVQLVESGGSLVQPGGSLRLSCAASGFTFDDYAMSWVRQVPGKGLEWVSSINWSGTHTDYADSVKGRFTISRNNANNTLYLQMNSLKSEDTAVYYCAKNWRDAGTTWFEKSGSAGQGTQVTVSS
# notes: as for B2
# B8: 2A4-9GS-2A4 (VHH)
# chain: EVQLVESGGGLVQPGGSLRLSCAASGFIFDDYAMSWVRQAPGKGLEWVSAINWSGSHRNYADSVKGRFTISRDNAKKTVYLQMNSLQSEDTAVYYCGTGWQSTTKNQGYWGQGTQVTVSSGGGGSGGGSEVQLVESGGGLVQPGGSLRLSCAASGFIFDDYAMSWVRQAPGKGLEWVSAINWSGSHRNYADSVKGRFTISRDNAKKTVYLQMNSLQSEDTAVYYCGTGWQSTTKNQGYWGQGTQVTVSS
# notes: as for B2
# B9: 30D10-35GS-2D3 (bispecific antibody)
# chain: EVQLVESGGGLVQAGGSLTLSCTASETTVRIRTMAWYRQPPGNQREWVATIGSNGFATYPDSVKGRFTISRDNAKNTVYLQMNSLKPEDTAVYYCRDINRDIWGQGSQVTVSSGGGGSGGGGSGGGGSGGGGSGGGGSGGGGSGGGGSEVQLVESGGSLVQPGGSLRLSCAASGFTFDDYAMSWVRQVPGKGLEWVSSINWSGTHTDYADSVKGRFTISRNNANNTLYLQMNSLKSEDTAVYYCAKNWRDAGTTWFEKSGSAGQGTQVTVSS
# notes: as for B5
# B10: 47D5 (VHH)
# VHH: KVQLVESGGGLVQPGGSLRLSCAASGSIFGFNDMAWYRQAPGKQRELVALISRVGVTSSADSVKGRFTISRVNAKDTVYLQMNSLKPEDTAVYYCYMDQRLDGSTLAYWGQGTQVTVSS
# notes: c-myc/His6-tagged; also called 47A8
# B11: 27H3-35GS-2D3 (other)
# chain: EVQLVESGGSLVQPGGSLRLSCAASGFTFDDYAMTWVRQASGKGLEWVSSINWSGTHTDYTDSVKGRFTISRNNANNTLYLQMNSLKSEDTAVYYCAKNWGDAGTTWFEKSGSAGQGTQVTVSSGGGGSGGGGSGGGGSGGGGSGGGGSGGGGSGGGGSEVQLVESGGSLVQPGGSLRLSCAASGFTFDDYAMSWVRQVPGKGLEWVSSINWSGTHTDYADSVKGRFTISRNNANNTLYLQMNSLKSEDTAVYYCAKNWRDAGTTWFEKSGSAGQGTQVTVSS
# notes: as for B5
# Assays:
# [1] = molecular target: T1, recombinant human ErbB2/Fc chimera (human, UniProt P04626 23-652); assay: SPR Biacore 3000, periplasmic extract over immobilised rhErbB2-Fc
# T1 construct: bought from R&D Systems; also called rhErbB2-Fc; rhErb2-Fc; Fc part of the bought chimera not given
# HER2 on SKBR3 cells [2] = molecular target: T2, HER2 on SKBR3 cells (human, UniProt P04626 23-1255); assay: FMAT on SKBR3 cells; competitor labeled Herceptin
# T2 construct: whole, on cells; also called ErbB2; HER2 p185 tyrosine kinase
# HER2 on SKBR3 cells [3] = molecular target: T2, HER2 on SKBR3 cells; assay: cell-based or functional assay
# HER2 on SKBR3 cells [4] = molecular target: T2, HER2 on SKBR3 cells; assay: FMAT on SKBR3 cells, periplasmic extract; competitor Alexa647-Herceptin
# HER2 on SKBR3 cells [5] = molecular target: T2, HER2 on SKBR3 cells; assay: FMAT on SKBR3 cells, periplasmic extract; competitor biotinylated OT-Fab
Binder,binding result (HER2 on SKBR3 cells [2]),also measured
B1,,koff [1]: 0.00109 s⁻¹
B2,binds,
B3,,"inhibition of SKBR3 proliferation ([3H]-thymidine), 50 nM Nanobody (HER2 on SKBR3 cells [3]): ~30%"
B4,,% blocking of Herceptin binding (HER2 on SKBR3 cells [4]): > 90%
B5,binds,
B6,binds,
B7,binds,
B8,binds,
B9,binds,
B10,,% blocking of OT-Fab binding (HER2 on SKBR3 cells [5]): > 85%
B11,binds,
